Test: yeast display, Sf9 membrane polyspecificity reagent, FACS + sequencing; frameworks hold sequencing errors
Outline: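 A nanobody's polyreactivity label depends on the gate it was sorted from. Yeast display cells were stained with 10% biotinylated, detergent-solubilized Sf9 membrane reagent for 1 hour at 4 °C, enriched on streptavidin microbeads and sorted by FACS. The low and high (top ~1%) gates were set on anti-HA fluorescence for expression and streptavidin fluorescence for reagent binding.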

| Sequence | polyreactivity (PSR sort gate) |
| --- | --- |
| QVQLVESGGGLVQAGGSLRLSCAASGRTFYGYAMGWYRQAPGKERELVASISWSTGSTHYADSVKGRFTISRDNAKNTVYLQMNSLKPEDTAVYYCAAPFWRDSYVQIDYDYWGQGTQVTVSS | low polyreactivity |
| QVQLVESGGGLVQAGGSLRLSCAASGRTFYGYAMGWYRQAPGKERELVASISYSGGNTYYADSVKGRFTISRDIAKNTVYLQMNSLKPEDTAVYYCAAEVVFFGWHYDYWGQGTQVTVSS | high polyreactivity |
| QVQLVESGGGLVQAGGSLRLSCAASGRTFYGYAMGWYRQAPGKERELVAVITRDGSTNYADSVKGRFTISRDNAKNTVYLQMNSLKPEDTAVYYCAAERLAYRVRWRYNQEDYWGQGTQVTVSS | high polyreactivity |
| QVQLVESGGGLVQAGGSLRLSCAASGRTFYHNAMGWYRQAPGKERELVASNRWSGGSTYADSVNGRFTISRDNAKNTVYLQMNSLKPEDTAVYYCARRYYRTGYWEPFIALNGYWGQGTKVTVSS | high polyreactivity |
| QVQLVESGGGLVQAGGSLRLSCAASGRTFYHYAMGWYRQAPGKEREFVAAISVSGGRTYYADSVKGRFTISRDNAKNTVYLQMNSLKPEDTAVYYCAARSGAQRGGGYWGQGTQVTVSS | high polyreactivity |
| QVQLVESGGGLVQAGGSLRLSCAASGRTFYIYAMGWYRQAPGKERELVAAISGSGGSTYYADSVKGRFTISRDNAKNTVYFQMNSLKPEDTAVYYCATKLRRSRYVRYDYWGQGTQVTVSS | high polyreactivity |
| QVQLVESGGGLVQAGGSLRLSCAASGRTFYIYAMGWYRQAPGKERELVAAITSVGSTNYADSVKGRFTISRDNAKNTVYLQMNSLKPEDTAVYYCAAASTEGTSGDYDYWGQGTQVTVSS | low polyreactivity |
| QVQLVESGGGLVQAGGSLRLSCAASGRTFYIYTMGWYRQAPGKERELVAAISSSGDSTYYADSVKGRFTISRDNAKNTVFLQMNPLKPEDTAVYYCAAYPTYPDEYWGQGTQVTVSS | low polyreactivity |
| QVQLVESGGGLVQAGGSLRLSCAASGRTFYKNTMGWYREAPGKEREMVATISQRGGSTYYADSVKGRFTISRDNAKNTVFLQMNSLKPEDTAVYYCYARHYYIWWRSPTRTAMNYWGQGTQVTVSS | high polyreactivity |
| QVQLVESGGGLVQAGGSLRLSCAASGRTFYKNTMGWYRQAPGKERELVAGISQRGGRTYYADSVKGRFTISRDNANYTVYLQMNSLKPEDTAVYYCAVRSYGHGFDYWGQGNQVTVSS | high polyreactivity |
| QVQLVESGGGLVQAGGSLRLSCAASGRTFYKYTMGWYRQAPGKERELVAAITTSGGGTYYADSVKGRFTISRDNAKNTVYIQMNSLKPEDTAVYYCAARYRELRTEYYYWGQGTQVTVSA | high polyreactivity |
| QVQLVESGGGLVQAGGSLRLSCAASGRTFYLNAMGWYRQAPGKERELVAAISRNGGSTYYADSVKGRFTISRDNAKNTVYLQMNSLKPEDTAVYYCNKNWLGWADPSLDKRYDYWGQGTQVTVSS | high polyreactivity |
| QVQLVESGGGLVQAGGSLRLSCAASGRTFYLNAMGWYRQAPGKERELVAAITSSGGRTYYADSVKGRFTISRDNAKNTVYLQMNSLKPEDTAVYYCAAVVSSKPSFYWGQGTQVTVSS | low polyreactivity |
| QVQLVESGGGLVQAGGSLRLSCAASGRTFYLYAMGWYRQAPGKEREFVAAISKRGGSTYYADSVKGRFTISRDNAKNTVYLQMNSLKPEDTAVYYCAAEVFRYRLNQTPTYRGDYWGQGTQVTVSS | high polyreactivity |
| QVQLVESGGGLVQAGGSLRLSCAASGRTFYLYAMGWYRQAPGKERELVAAITSAGSTNYADSVKGRFTISRDNAKNTVYLQMNSLKPEDSAVYYCNAYKRGYLYRYNYWGQGTQVTLSS | high polyreactivity |
| QVQLVESGGGLVQAGGSLRLSCAASGRTFYLYAMGWYRQAPGKERELVAAITSGGSTYYADSVKGRFTISRDNAKNTVYLQMNSLKPEDTAVYYCAAYAYLTAGTSRRRGYWGQGTQVTVSS | high polyreactivity |

| Sequence | polyreactivity (PSR sort gate) |
| --- | --- |
| QVQLVESGGGLVQAGGSLRLSCAASGRTFYLYAMVCYRQAPGKERELVAAITNRGGSTYYADSVKGRFTISRDNAKNTVYLQMNSLKPEDTAVYYCAAQVSVYRGGYGYWGQGTQVTVSS | high polyreactivity |
| QVQLVESGGGLVQAGGSLRLSCAASGRTFYLYTMGWYRQAPGKERELVAAISRGGRTYADSVKGRFTISRDNAKNTVYLQMNSLKPDDTAVYYCAAESVYHGWSYQHGKGDYWGQGTQVTVSS | low polyreactivity |
| QVQLVESGGGLVQAGGSLRLSCAASGRTFYLYTMGWYRQAPGKERELVAAISRGGRTYADSVKGRFTISRDNAKNTVYLQMNSLKPEDTAVYYCAAESVYQGWSYQHGKGDYWGQGTQVTVSS | low polyreactivity |
| QVQLVESGGGLVQAGGSLRLSCAASGRTFYNYAMGWYRQAPGKERELVAAISWSDGTTYYADSVKGRFTISRDNAKNTVYLQMNSLKPEDTAVYYCAAEFESSFALGFYYWGQGTQVTVSS | high polyreactivity |
| QVQLVESGGGLVQAGGSLRLSCAASGRTFYNYAMGWYRQAPGKERELVAAITRGGSTYYADSVKGRFTISRDNAKNTVYLQMNSLKPEDTAVYYCNAYYYIPFEGRGYSKMDYWGQGTQVTVSS | high polyreactivity |
| QVQLVESGGGLVQAGGSLRLSCAASGRTFYNYAMGWYRQAPGKERELVASIRKNGGSTYYADSVKGRFTISRDNAKNTVYLQMNSLKPEDTAVYYCDARYWGISRIFPSKYDYWGQGTQVTVSS | high polyreactivity |
| QVQLVESGGGLVQAGGSLRLSCAASGRTFYPNAMGWYRQAPGKERELVAAITWRSGSTYYADSVKGRFTISRDNAKNTVYLPMNSLKPEDTAVYYCNADSDYPYYPGKFDYWGQGTQVTVSS | low polyreactivity |
| QVQLVESGGGLVQAGGSLRLSCAASGRTFYPYAMGWYRQAPGKERELVAAIRSSGGTTYYADSVKGRFTISRDNAKNTVYLQMNSLKPEDTAVYYCAAYVDRQGGYYWGQGTQVTVSS | high polyreactivity |
| QVQLVESGGGLVQAGGSLRLSCAASGRTFYPYAMGWYRQAPGKERELVAAISSSGGSTYYADSVKGRFTISRDNAKNTVYLQMNSLKPEDTAVYYCAAAVYLQYLDDPTYGYWGQGTQVTVSS | high polyreactivity |
| QVQLVESGGGLVQAGGSLRLSCAASGRTFYPYAMGWYRQAPGKERELVAAITISVGSTYYADSVKGRFTISRDNAKNTVYLQMNSLNPEDTAVYYCAAANTPEYDYWGQGTQVTVSS | low polyreactivity |
| QVQLVESGGGLVQAGGSLRLSCAASGRTFYPYAMGWYRQAPGKERELVARISRGGRTNYADSVKGRFTISRDNAKNTVYLQMNSLKPEDTAVYYCAADYYGSYFITEDYWGQGTQVTVSS | low polyreactivity |
| QVQLVESGGGLVQAGGSLRLSCAASGRTFYPYARGWYREAPGKERELVAAISSNGVLTYYADSVKGRFTISRDNAKKSVYLQMNSLKPEDTAVYYCAARKPYVYHLDSWGQGTQVTVSS | high polyreactivity |
| QVQLVESGGGLVQAGGSLRLSCAASGRTFYRKAMGWYIQAPGKEREFVAVISVSGGSTYYADSVKGRFTISRDNAKITVYLQMNSLKPEDTAVYYCAKRGPVRKTAYDYWGQGTQVTVSS | low polyreactivity |
| QVQLVESGGGLVQAGGSLRLSCAASGRTFYRNAMGWYIQAPGKERELVAAITWSGVSTYYADSVKGRFTISRDNAKNTVYLQMNSLKPEDTAVYYCARGRVLRNGHYFQLRNYDYWGQGTQVTVSS | high polyreactivity |
| QVQLVESGGGLVQAGGSLRLSCAASGRTFYRNAMGWYRQAPGIERELVAVISQRGGRTFYADSVKGRFTISRDNAKNTVYLQMNSLKPEDTAVYYCAAPTQSYAHQGFGYWGQGTQVTVSS | high polyreactivity |

From the nanobody polyreactivity screen of Harvey et al. (2022)
